The record followed here is doi:10.1101/2022.02.14.480394 (bioRxiv, 2022).

The experiment addresses Receptor Binding-Domain (RBD) of SARS-CoV-2 Spike (S) protein, Wuhan-Hu-1 (SARS-CoV-2, UniProt P0DTC2). In words: BLI.

B1: C105 (antibody, V domains shown)
VH: QVQLVESGGGLIQPGGSLRLSCAASGFTVSSNYMSWVRQAPGKGLEWVSVIYSGGSTYYADSVKGRFTISRDNSKNTLYLQMNSLRAEDTAVYYCARGEGWELPYDYWGQGTLVTVSS
VL: QSALTQPPSASGSPGQSVTISCTGTSSDVGGYKYVSWYQQHPGKAPKLMIYEVSKRPSGVPDRFSGSKSGNTASLTVSGLQAEDEADYYCSSYEGSNNFVVFGGGTKLTVL
Take B1: the binding result is on record as “binds”.

B2: C118 (antibody, V domains shown)
VH: QVQLVESGGGVVQPGRSLRLSCAASGFTFSNYAMHWVRQAPGKGLEWVAVISYDGSNKYYADSVKGRFTISRDNSKNTLYLQMNSLRAEDTAIYYCASGYTGYDYFVRGDYYGLDVWGQGTTVTVSS
VL: QPVLTQSPSASASLGASVKLTCTLSSGHSSYAIAWHQQQPEKGPRYLMKLNTDGSHSKGDGIPDRFSGSSSGAERYLTISSLQSEDEADYYCQTWGTGILVFGGGTKLTVL
As to B2, the binding result is “binds”.
